{
  "source": "patent US20100322897A1",
  "target": "human IL-17 receptor (IL-17R) on primary human bronchial epithelial (HBE) cells (human) (UniProt Q96F46)",
  "assay": "cell-based or functional assay",
  "data": [
    {"substance": "IL-17A (R&D Systems) (from UniProt Q16552 20-155) (ligand)", "values": [
      {"measurement": "inhibition of DEFB104 mRNA upregulation by 100 ng/ml IL-17A in HBE cells after preincubation with 2 ug/ml anti-IL-17R antibody", "result": 62.5, "unit": "%"}
    ]},
    {"substance": "human IL-17F (R&D Systems) (from UniProt Q96PD4 31-163) (ligand)", "values": [
      {"measurement": "inhibition of DEFB104 mRNA upregulation by 100 ng/ml IL-17F in HBE cells after preincubation with 2 ug/ml anti-IL-17R antibody", "result": 77.6, "unit": "%"}
    ]}
  ]
}
